From patent US20260144882A1 (BIO THERA SOLUTIONS, published 2026)
Several values for one entry are separate records, joined by “and”; a condition that tells them apart may be missing. Equal values may be shown once. Values belong to the binder of their own block, whether it stands above or below them.

What was measured:
[1] = molecular target: T1, human Nectin-4 extracellular antigen hNectin-4-His (human, UniProt Q96NY8 32-349); experiment: ELISA, coated antigen
T1 construct: C-terminal 8xHis tag included
T1 sequence: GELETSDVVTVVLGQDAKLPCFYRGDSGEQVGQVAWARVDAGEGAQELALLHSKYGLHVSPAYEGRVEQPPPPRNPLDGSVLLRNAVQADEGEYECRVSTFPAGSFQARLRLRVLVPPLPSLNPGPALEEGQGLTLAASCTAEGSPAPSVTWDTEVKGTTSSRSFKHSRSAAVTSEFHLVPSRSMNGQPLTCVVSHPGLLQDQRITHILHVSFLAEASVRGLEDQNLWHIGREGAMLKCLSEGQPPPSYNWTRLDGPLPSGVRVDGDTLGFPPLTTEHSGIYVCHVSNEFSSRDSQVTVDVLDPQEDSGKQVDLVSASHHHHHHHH
Excerpt: (§1) The binding activity of the antibodies was detected by ELISA.
(§2) In this assay, the binding of different antibodies to human Nectin-4 homologous proteins hNectin-1 (ACRO, PV1-H5223), hNectin-2 (ACRO, PV2-H52E2), hNectin-3 (ACRO, PV3-H52E4), and hNectin-4-His was detected by ELISA to determine the specificity of the antibodies. For the methodology and procedures, see Example 4. Antigens of interest ([…]) were immobilized; after blocking, serially diluted antibodies (2-fold serially diluted from […]) were added, and HRP-labeled anti-human-Kappa secondary antibody was added for chromogenic reaction.

[2] = molecular target: T2, hNectin-1 (ACRO, PV1-H5223) (human, UniProt Q15223 31-334); experiment: ELISA, coated antigen
T2 construct: bought; construct not described
T2 sequence (looked up): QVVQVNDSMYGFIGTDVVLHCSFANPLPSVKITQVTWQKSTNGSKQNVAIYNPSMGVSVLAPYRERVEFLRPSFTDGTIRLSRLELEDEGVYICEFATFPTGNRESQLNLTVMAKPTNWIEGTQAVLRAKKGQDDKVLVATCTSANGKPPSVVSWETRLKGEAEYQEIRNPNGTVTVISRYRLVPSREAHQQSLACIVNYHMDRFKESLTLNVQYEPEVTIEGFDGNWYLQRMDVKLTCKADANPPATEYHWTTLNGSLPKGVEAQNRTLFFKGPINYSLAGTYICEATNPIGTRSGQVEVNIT
Excerpt: as §1, §2

[3] = molecular target: T3, hNectin-2 (ACRO, PV2-H52E2) (human, UniProt Q92692 32-360); experiment: ELISA, coated antigen
T3 construct: bought; construct not described
T3 sequence (looked up): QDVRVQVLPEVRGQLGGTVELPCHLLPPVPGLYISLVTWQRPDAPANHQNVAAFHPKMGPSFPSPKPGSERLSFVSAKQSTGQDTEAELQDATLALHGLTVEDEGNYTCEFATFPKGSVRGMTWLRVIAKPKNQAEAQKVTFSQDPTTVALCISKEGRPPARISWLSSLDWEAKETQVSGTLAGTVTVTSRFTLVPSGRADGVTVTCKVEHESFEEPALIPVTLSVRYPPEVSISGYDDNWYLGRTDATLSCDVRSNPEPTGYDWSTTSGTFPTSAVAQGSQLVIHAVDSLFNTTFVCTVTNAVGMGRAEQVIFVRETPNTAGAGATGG
Excerpt: as §1, §2

[4] = molecular target: T1, human Nectin-4 extracellular antigen …; experiment: SPR, antibody on Protein A chip, 1:1 fit
Excerpt: In this study, the affinity of the antibodies for the human Nectin-4 extracellular antigen was detected by surface plasmon resonance (SPR) technique (BIAcore: GE Healthcare, T200).

[5] = molecular target: T1, human Nectin-4 extracellular antigen …; experiment: ELISA, coated hNectin-4-His
Excerpt: as §1

[6] = molecular target: T1, human Nectin-4 extracellular antigen …; experiment: ELISA, coated hNectin-4-His; remark: listed apart in the source
Excerpt: as §1

- EC50 [1]: 0.041 µg/mL
- Kd [4]: 4.97 nM
- koff [4]: 0.003 s⁻¹
- kon [4]: 605000 M⁻¹ s⁻¹
B1: antibody 1G8 (antibody, human IgG1, kappa, V domains shown)
VH: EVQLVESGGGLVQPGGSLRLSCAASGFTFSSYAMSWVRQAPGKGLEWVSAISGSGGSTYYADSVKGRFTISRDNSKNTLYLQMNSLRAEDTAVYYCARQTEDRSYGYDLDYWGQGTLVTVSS
VL: DIQMTQSPSSLSASVGDRVTITCRASQGISSYLAWYQQKPGKAPKLLIYAASSLQSGVPSRFSGSGSGTDFTLTISSLQPEDFATYYCQQHYTTPPTFGQGTKVEIKR
- binding result [2]: no binding (tested: 2-fold serially diluted from 2 g/mL)
- binding result [3]: no binding (tested: 2-fold serially diluted from 2 g/mL)

- EC50 [1]: 0.04 µg/mL
- EC50 [5]: 0.005 µg/mL
- Kd [4]: 2.49 nM
- koff [4]: 0.00195 s⁻¹
- kon [4]: 785000 M⁻¹ s⁻¹
B2: antibody 1F3 (antibody, human IgG1, kappa, V domains shown)
VH: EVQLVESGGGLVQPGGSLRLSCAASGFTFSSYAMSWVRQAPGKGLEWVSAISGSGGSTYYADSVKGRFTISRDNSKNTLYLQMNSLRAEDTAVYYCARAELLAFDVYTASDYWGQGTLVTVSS
VL: B1 VL
- binding result [2]: no binding (tested: 2-fold serially diluted from 2 g/mL)
- binding result [3]: no binding (tested: 2-fold serially diluted from 2 g/mL)

- EC50 [1]: 0.045 µg/mL
- EC50 [6]: 0.041 µg/mL and 0.043 µg/mL
- Kd [4]: 3.23 nM
- koff [4]: 0.00121 s⁻¹
- kon [4]: 375000 M⁻¹ s⁻¹
B3: antibody 10F4 (antibody, human IgG1, kappa, V domains shown)
VH: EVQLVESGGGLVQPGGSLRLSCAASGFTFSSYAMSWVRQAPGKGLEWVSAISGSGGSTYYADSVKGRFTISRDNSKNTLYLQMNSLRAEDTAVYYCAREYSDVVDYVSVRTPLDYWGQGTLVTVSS
VL: B1 VL
- binding result [2]: no binding (tested: 2-fold serially diluted from 2 g/mL)
- binding result [3]: no binding (tested: 2-fold serially diluted from 2 g/mL)
